The numbers were not newly measured in publication PMC4059559, which cites them from elsewhere.

In one data set the target is His152 (UniProt position 152, WFCPCHGSHYD). In words: other.
The next data set has as its target His131 (UniProt position 131, WGVCTHLGCVP). In words: other.
Where [1] appears, read: oxidised ISP (ISPox), isolated protein.

The term pKa denotes the pH at which an ionisable group is half protonated. Turning to “Rieske iron-sulfur protein (ISP) of the cytochrome bc1 complex, isolated (Rhodobacter sphaeroides)”, the pKa with His152 (setting [1]) is recorded as about 7.6; in the data set with His152 (reduced ISP (ISPH)), ~12–13; with His131 (setting [1]), about 9.6; with His131 (reduced ISP (ISPH)), ~12–13.
